In article PMC1179735:

Target: T1, indolicidin (Bos taurus (bovine; synthetic peptide), UniProt P33046)
T1 chain: ILPWKWPWWPWRR
Assay: SPR

Binder: CATAATATTC (ssDNA) [ss[AT]]
- Kd: 2090 µM

Binder: CAGAGAGAGT (ssDNA) [ss[AG]]
- Kd: 2440 µM

Binder: CGCGGCGGCT (ssDNA) [ss[GC] (ss[CG] in Table 2)]
- Kd: 1530 µM

Binder: CGTGTGTGTC (ssDNA) [ss[GT]]
- Kd: 115 µM
